Experiments:
Test in all cases: cell-based or functional assay
[1] = target: HIV-1 Env of pseudovirus 0815.v3.c3 (HIV-1)
[2] = target: HIV-1 Env of pseudovirus 1394C9G1(Rev-) (HIV-1)
[3] = target: HIV-1 Env of pseudovirus 231965.c01 (HIV-1)
[4] = target: HIV-1 Env of pseudovirus 235-47 (HIV-1)
[5] = target: HIV-1 Env of pseudovirus 3016.v5.c45 (HIV-1)
[6] = target: HIV-1 Env of pseudovirus 6041.v3.c23 (HIV-1)
[7] = target: HIV-1 Env of pseudovirus 620345.c01 (HIV-1)
[8] = target: HIV-1 Env of pseudovirus 62357_14_03_4589 (HIV-1)
[9] = target: HIV-1 Env of pseudovirus 6240_08_TA5_4622 (HIV-1)
[10] = target: HIV-1 Env of pseudovirus 6480.v4.c25 (HIV-1)
[11] = target: HIV-1 Env of pseudovirus 6540.v4.c1 (HIV-1)
[12] = target: HIV-1 Env of pseudovirus 6545.v4.c1 (HIV-1)
[13] = target: HIV-1 Env of pseudovirus BF1266.431a (HIV-1)
[14] = target: HIV-1 Env of pseudovirus BJOX010000.06.2 (HIV-1)
[15] = target: HIV-1 Env of pseudovirus CNE19 (HIV-1)
[16] = target: HIV-1 Env of pseudovirus CNE5 (HIV-1)
[17] = target: HIV-1 Env of pseudovirus CNE52 (HIV-1)
[18] = target: HIV-1 Env of pseudovirus CNE8 (HIV-1)
[19] = target: HIV-1 Env of pseudovirus Ce1086_B2 (HIV-1)
[20] = target: HIV-1 Env of pseudovirus HIV-16055-2.3 (HIV-1)
[21] = target: HIV-1 Env of pseudovirus SC422661.8 (HIV-1)
[22] = target: HIV-1 Env of pseudovirus T255-34 (HIV-1)
[23] = target: HIV-1 Env of pseudovirus THRO4156.18 (HIV-1)
[24] = target: HIV-1 Env of pseudovirus WEAU_d15_410_787 (HIV-1)
[25] = target: HIV-1 Env of pseudovirus X1254_c3 (HIV-1)
[26] = target: HIV-1 Env of pseudovirus YU-2 (HIV-1) (UniProt P35961)
HIV-1 Env of pseudovirus YU-2 (HIV-1), sequence (P35961 32-843 limits assumed): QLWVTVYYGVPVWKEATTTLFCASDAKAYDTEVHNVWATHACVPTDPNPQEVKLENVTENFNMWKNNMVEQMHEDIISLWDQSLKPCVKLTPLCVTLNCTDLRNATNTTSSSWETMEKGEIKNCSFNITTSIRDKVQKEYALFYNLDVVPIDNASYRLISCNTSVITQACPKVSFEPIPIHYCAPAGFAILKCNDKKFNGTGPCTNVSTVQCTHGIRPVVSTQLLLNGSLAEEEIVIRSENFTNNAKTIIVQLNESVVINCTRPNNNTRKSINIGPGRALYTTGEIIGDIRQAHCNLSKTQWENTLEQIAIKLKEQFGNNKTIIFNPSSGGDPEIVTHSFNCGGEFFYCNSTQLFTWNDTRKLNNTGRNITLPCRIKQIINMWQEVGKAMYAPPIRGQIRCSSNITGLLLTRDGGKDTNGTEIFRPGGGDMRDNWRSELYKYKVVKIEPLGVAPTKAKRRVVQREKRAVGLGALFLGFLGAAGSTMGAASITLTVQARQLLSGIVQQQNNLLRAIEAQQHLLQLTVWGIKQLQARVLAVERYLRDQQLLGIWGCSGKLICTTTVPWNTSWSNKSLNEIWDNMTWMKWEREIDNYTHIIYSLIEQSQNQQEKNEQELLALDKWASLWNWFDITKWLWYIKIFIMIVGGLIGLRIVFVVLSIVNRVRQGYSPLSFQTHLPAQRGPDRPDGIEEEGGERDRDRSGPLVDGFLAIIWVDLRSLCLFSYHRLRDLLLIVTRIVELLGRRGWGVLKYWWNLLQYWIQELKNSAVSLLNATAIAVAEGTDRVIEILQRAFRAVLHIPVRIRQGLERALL

[27] = target: HIV-1 Env of pseudovirus ZM214M.PL15 (HIV-1)
[28] = target: HIV-1 envelope of pseudovirus 191821_E6_1 (HIV-1)
[29] = target: HIV-1 envelope of pseudovirus 231966.c02 (HIV-1)
[30] = target: HIV-1 envelope of pseudovirus 6041.v3.c23 (HIV-1)
[31] = target: HIV-1 envelope of pseudovirus A07412M1.vrc12 (HIV-1)
[32] = target: HIV-1 envelope of pseudovirus C3347.c11 (HIV-1)
[33] = target: HIV-1 envelope of pseudovirus C4118.c09 (HIV-1)
[34] = target: HIV-1 envelope of pseudovirus CNE17 (HIV-1)
[35] = target: HIV-1 envelope of pseudovirus CNE20 (HIV-1)
[36] = target: HIV-1 envelope of pseudovirus CNE5 (HIV-1)
[37] = target: HIV-1 envelope of pseudovirus Ce1086_B2 (HIV-1)
[38] = target: HIV-1 envelope of pseudovirus HIV-001428-2.42 (HIV-1)
[39] = target: HIV-1 envelope of pseudovirus MS208.A1 (HIV-1)
[40] = target: HIV-1 envelope of pseudovirus Q23.17 (HIV-1)
[41] = target: HIV-1 envelope of pseudovirus QH0692.42 (HIV-1)
[42] = target: HIV-1 envelope of pseudovirus T250-4 (HIV-1)
[43] = target: HIV-1 envelope of pseudovirus T278-50 (HIV-1)
[44] = target: HIV-1 envelope of pseudovirus TRJO4551.58 (HIV-1)
[45] = target: HIV-1 envelope of pseudovirus X1193_c1 (HIV-1)
[46] = target: HIV-1 envelope of pseudovirus ZM109F.PB4 (HIV-1)
[47] = target: HIV-1 envelope of pseudovirus ZM197M.PB7 (HIV-1)
[48] = target: HIV-1 envelope of pseudovirus ZM247v1(Rev-) (HIV-1)
[49] = target: HIV-1 envelope of pseudovirus ZM249M.PL1 (HIV-1)
[50] = target: HIV-1 envelope spike of pseudovirus SC422661.8 (HIV-1)

10-996 (antibody), sequence (VH): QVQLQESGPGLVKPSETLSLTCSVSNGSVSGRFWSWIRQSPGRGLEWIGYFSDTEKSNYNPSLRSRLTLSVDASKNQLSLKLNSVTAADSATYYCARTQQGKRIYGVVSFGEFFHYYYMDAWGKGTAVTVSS
10-996 (antibody), sequence (VL): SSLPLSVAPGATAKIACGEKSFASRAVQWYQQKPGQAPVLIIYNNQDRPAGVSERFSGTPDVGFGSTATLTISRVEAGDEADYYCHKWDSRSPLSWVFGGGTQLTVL

With 10-996 (antibody) the IC80 (TZM-bl neutralization) [1] was 0.251 µg/mL, the IC80 (TZM-bl neutralization) [2] was 0.328 µg/mL and the IC80 (TZM-bl neutralization) [3] was > 50 µg/mL. For the same substance, the IC80 (TZM-bl neutralization) [4] was 0.381 µg/mL, the IC80 (TZM-bl neutralization) [5] was > 50 µg/mL and the IC80 (TZM-bl neutralization) [6] was > 50 µg/mL. The IC80 (TZM-bl neutralization) [7] was > 50 µg/mL, the IC80 (TZM-bl neutralization) [8] was > 50 µg/mL and the IC80 (TZM-bl neutralization) [9] was 0.348 µg/mL. For the same substance, the IC80 (TZM-bl neutralization) [10] was 0.049 µg/mL, the IC80 (TZM-bl neutralization) [11] was > 50 µg/mL and the IC80 (TZM-bl neutralization) [12] was > 50 µg/mL. The IC80 (TZM-bl neutralization) [13] was > 50 µg/mL, the IC80 (TZM-bl neutralization) [14] was > 50 µg/mL and the IC80 (TZM-bl neutralization) [15] was > 50 µg/mL. For the same substance, the IC80 (TZM-bl neutralization) [16] was > 50 µg/mL, the IC80 (TZM-bl neutralization) [17] was 43.8 µg/mL and the IC80 (TZM-bl neutralization) [18] was > 50 µg/mL. The IC80 (TZM-bl neutralization) [19] was > 50 µg/mL, the IC80 (TZM-bl neutralization) [20] was > 50 µg/mL and the IC80 (TZM-bl neutralization) [21] was 0.627 µg/mL. For the same substance, the IC80 (TZM-bl neutralization) [22] was > 50 µg/mL, the IC80 (TZM-bl neutralization) [23] was > 50 µg/mL and the IC80 (TZM-bl neutralization) [24] was 0.422 µg/mL. The IC80 (TZM-bl neutralization) [25] was 0.42 µg/mL, the IC80 (TZM-bl neutralization) [26] was 0.891 µg/mL and the IC80 (TZM-bl neutralization) [27] was 3.25 µg/mL. For the same substance, the IC50 (TZM-bl neutralization) [28] was > 50 µg/mL, the IC50 (TZM-bl neutralization) [29] was > 50 µg/mL and the IC50 (TZM-bl neutralization) [30] was > 50 µg/mL. The IC50 (TZM-bl neutralization) [31] was 0.008 µg/mL, the IC50 (TZM-bl neutralization) [32] was > 50 µg/mL and the IC50 (TZM-bl neutralization) [33] was > 50 µg/mL. The IC50 (TZM-bl neutralization) [34] was 4.04 µg/mL, the IC50 (TZM-bl neutralization) [35] was < 0.001 µg/mL and the IC50 (TZM-bl neutralization) [36] was > 50 µg/mL. For the same substance, the IC50 (TZM-bl neutralization) [37] was > 50 µg/mL, the IC50 (TZM-bl neutralization) [38] was 0.04 µg/mL and the IC50 (TZM-bl neutralization) [39] was > 50 µg/mL. The IC50 (TZM-bl neutralization) [40] was 0.008 µg/mL, the IC50 (TZM-bl neutralization) [41] was 0.396 µg/mL and the IC50 (TZM-bl neutralization) [42] was < 0.001 µg/mL. It also gave an IC50 (TZM-bl neutralization) [43] of 14 µg/mL, an IC50 (TZM-bl neutralization) [44] of 0.147 µg/mL and an IC50 (TZM-bl neutralization) [45] of 0.144 µg/mL. For the same substance, the IC50 (TZM-bl neutralization) [46] was > 50 µg/mL, the IC50 (TZM-bl neutralization) [47] was > 50 µg/mL and the IC50 (TZM-bl neutralization) [48] was 0.055 µg/mL. The IC50 (TZM-bl neutralization) [49] was > 50 µg/mL, the IC50 (TZM-bl neutralization assay) [50] was 0.255 µg/mL and the IC80 (TZM-bl neutralization assay) [50] was 0.845 µg/mL.
In the case of PGT121 (antibody), the IC80 (TZM-bl neutralization) [1] is reported as 0.105 µg/mL, the IC80 (TZM-bl neutralization) [2] is reported as 3.37 µg/mL and the IC80 (TZM-bl neutralization) [3] is reported as > 50 µg/mL. The IC80 (TZM-bl neutralization) [4] was 1.68 µg/mL, the IC80 (TZM-bl neutralization) [5] was > 50 µg/mL and the IC80 (TZM-bl neutralization) [6] was > 50 µg/mL. For the same substance, the IC80 (TZM-bl neutralization) [7] was > 50 µg/mL, the IC80 (TZM-bl neutralization) [8] was 45.6 µg/mL and the IC80 (TZM-bl neutralization) [9] was 0.584 µg/mL. For the same substance, the IC80 (TZM-bl neutralization) [10] was 0.079 µg/mL, the IC80 (TZM-bl neutralization) [11] was > 50 µg/mL and the IC80 (TZM-bl neutralization) [12] was > 50 µg/mL. The IC80 (TZM-bl neutralization) [13] was > 50 µg/mL, the IC80 (TZM-bl neutralization) [14] was > 50 µg/mL and the IC80 (TZM-bl neutralization) [15] was 0.189 µg/mL. For the same substance, the IC80 (TZM-bl neutralization) [16] was > 50 µg/mL, the IC80 (TZM-bl neutralization) [17] was 32.9 µg/mL and the IC80 (TZM-bl neutralization) [18] was > 50 µg/mL. It also gave an IC80 (TZM-bl neutralization) [19] of 0.006 µg/mL, an IC80 (TZM-bl neutralization) [20] of 4.29 µg/mL and an IC80 (TZM-bl neutralization) [21] of 0.46 µg/mL. The IC80 (TZM-bl neutralization) [22] was > 50 µg/mL, the IC80 (TZM-bl neutralization) [23] was > 50 µg/mL and the IC80 (TZM-bl neutralization) [24] was 0.295 µg/mL. The IC80 (TZM-bl neutralization) [25] was 0.199 µg/mL, the IC80 (TZM-bl neutralization) [26] was 0.356 µg/mL and the IC80 (TZM-bl neutralization) [27] was 3.15 µg/mL. For the same substance, the IC50 (TZM-bl neutralization) [28] was > 50 µg/mL, the IC50 (TZM-bl neutralization) [29] was > 50 µg/mL and the IC50 (TZM-bl neutralization) [30] was > 50 µg/mL. For the same substance, the IC50 (TZM-bl neutralization) [31] was 0.001 µg/mL, the IC50 (TZM-bl neutralization) [32] was > 50 µg/mL and the IC50 (TZM-bl neutralization) [33] was > 50 µg/mL. For the same substance, the IC50 (TZM-bl neutralization) [34] was 45.3 µg/mL, the IC50 (TZM-bl neutralization) [35] was 0.002 µg/mL and the IC50 (TZM-bl neutralization) [36] was > 50 µg/mL. For the same substance, the IC50 (TZM-bl neutralization) [37] was < 0.001 µg/mL, the IC50 (TZM-bl neutralization) [38] was 0.028 µg/mL and the IC50 (TZM-bl neutralization) [39] was > 50 µg/mL. It also gave an IC50 (TZM-bl neutralization) [40] of 0.01 µg/mL, an IC50 (TZM-bl neutralization) [41] of 1.04 µg/mL and an IC50 (TZM-bl neutralization) [42] of 0.001 µg/mL. For the same substance, the IC50 (TZM-bl neutralization) [43] was > 50 µg/mL, the IC50 (TZM-bl neutralization) [44] was 3.73 µg/mL and the IC50 (TZM-bl neutralization) [45] was 0.045 µg/mL. The IC50 (TZM-bl neutralization) [46] was 7.89 µg/mL, the IC50 (TZM-bl neutralization) [47] was > 50 µg/mL and the IC50 (TZM-bl neutralization) [48] was 0.027 µg/mL. The IC50 (TZM-bl neutralization) [49] was > 50 µg/mL, the IC50 (TZM-bl neutralization assay) [50] was 0.263 µg/mL and the IC80 (TZM-bl neutralization assay) [50] was 0.714 µg/mL.
